Data as given in PMC6194269, “Structural and functional characterization of hMEX‐3C Ring finger domain as an E3 ubiquitin ligase” (Protein Science : A Publication of the Protein Society, 2018).

Molecular target: the molecule itself
Assay: SEC; GST fusion digested by TEV protease and loaded on an S75 column; molecular weight calculated from elution volume

B1: Ring finger domain of hMEX-3C (domain or fragment, human, UniProt Q5U5Q3 603-659, looked up)
chain: RRKHDCVICFENEVIAALVPCGHNLFCMECANKICEKRTPSCPVCQTAVTQAIQIHS
notes: two zinc ions per monomer; also called hMEX-3C Ring finger domain; hMEX-3C Ring homodimer; source: E. coli BL21 (DE3), purified (GST column, Superdex 75); GST fusion digested by TEV protease
stoichiometry N: 2
